For three molecules, Km results are on record in article PMC3737229, “Novel Dicarboxylate Selectivity in an Insect Glutamate Transporter Homolog” (PLoS ONE, 2013).

The target of one series is T1, CuqDCT (Culex quinquefasciatus, UniProt B0W0K5).
T1 construct: gene 6031434; synthetic gene, full length, in-frame C-terminal GFP (EGFP), pCDNA3.1; cRNA expressed in Xenopus laevis oocytes
T1 sequence (B0W0K5 1-483): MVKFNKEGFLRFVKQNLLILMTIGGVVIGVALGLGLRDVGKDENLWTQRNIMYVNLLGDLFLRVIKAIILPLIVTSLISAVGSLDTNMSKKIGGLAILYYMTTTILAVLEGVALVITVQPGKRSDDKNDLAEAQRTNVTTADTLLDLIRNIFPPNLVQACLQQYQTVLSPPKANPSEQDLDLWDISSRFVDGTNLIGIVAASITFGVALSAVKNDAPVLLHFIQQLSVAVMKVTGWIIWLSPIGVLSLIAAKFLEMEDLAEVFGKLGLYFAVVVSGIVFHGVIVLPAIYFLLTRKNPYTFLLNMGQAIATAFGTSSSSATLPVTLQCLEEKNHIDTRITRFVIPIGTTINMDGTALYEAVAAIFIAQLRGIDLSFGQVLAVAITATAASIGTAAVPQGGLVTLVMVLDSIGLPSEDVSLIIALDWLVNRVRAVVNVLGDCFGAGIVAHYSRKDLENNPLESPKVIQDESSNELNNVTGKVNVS
Briefly: two-electrode voltage clamp, transport currents in oocytes. It counts as cell-based. Particulars: -60 mV; 96 mM NaCl Ringer, pH 7.5. On the technique in general: Two-electrode voltage clamp is typically applied to oocytes expressing channels or transporters.

Another series deals with T2, O=C(O)C[C@H](O)C(=O)O.
T2 construct: synthetic gene, full length, in-frame C-terminal GFP (EGFP), pCDNA3.1; cRNA expressed in Xenopus laevis oocytes
The series is described as above. Particulars: -60 mV, 96 mM NaCl Ringer, pH 7.5. It counts as cell-based, Culex quinquefasciatus.

For a further series, the system named is T3, N[C@@H](CCC(=O)O)C(=O)O.
T3 construct: synthetic gene, full length, in-frame C-terminal GFP (EGFP), pCDNA3.1; cRNA expressed in Xenopus laevis oocytes
The series is described as above. It counts as cell-based, Culex quinquefasciatus. Conditions: -60 mV, 96 mM NaCl Ringer, pH 7.5.

Substrate in series [1]: N[C@@H](CCC(=O)O)C(=O)O
Described as above. It counts as cell-based, Culex quinquefasciatus. Particulars: -60 mV, 96 mM NaCl Ringer, pH 7.5.

Substrate in series [2]: O=C(O)CCC(=O)C(=O)O
The description is as above. The class given is cell-based, Culex quinquefasciatus. Particulars: -60 mV, 96 mM NaCl Ringer, pH 7.5.

Substrate in series [3]: O=C(O)C[C@H](O)C(=O)O
Briefly: cells, lysate or membranes. Particulars: -60 mV, 96 mM NaCl Ringer, pH 7.5.

One may read the Km as the concentration of substrate that gives half-maximal velocity. As for `O=C(O)CCC(=O)O` [succinate], the Km at CuqDCT stood at 50.8 ± 2.3 µM.

Take CuqDCT (Culex quinquefasciatus; N428D): the Km with O=C(O)C[C@H](O)C(=O)O was determined as 8800 ± 1500 µM; in the series on N[C@@H](CCC(=O)O)C(=O)O, 13.8 ± 1.3 µM.

B1: CuqDCT (Culex quinquefasciatus) (protein)
chain: T1 sequence (B0W0K5 1-483)
notes: synthetic gene, full length, in-frame C-terminal GFP (EGFP), pCDNA3.1; cRNA expressed in Xenopus laevis oocytes
On to B1, for which the values for the Km in series [1], in series [2] and in series [3] were 1085 ± 96 µM, 20.2 ± 1.2 µM and 10.5 ± 0.5 µM, respectively.
